Experiments:
HeLa Kyoto [1] = assay: melting temperature (median over replicates), in situ; higher = more thermally stable
HeLa Kyoto [2] = assay: solubility in G1/S (NP-40 vs SDS abundance) (log2 ratio); higher = more soluble; conditions: cell cycle stage: G1/S
HeLa Kyoto [3] = assay: solubility change mitosis vs G1/S (difference of NP-40 vs SDS log2 ratios) (log2 ratio difference); higher = more soluble in mitosis
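Wherever melting temperature (median over replicates), in situ is given: HeLa Kyoto cells synchronized by double thymidine or nocodazole block, proteins quantified by TMT10plex mass spectrometry, three independent biological replicates.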
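Wherever solubility change mitosis vs G1/S (difference of NP-40 vs SDS log2 ratios) is given: synchronized HeLa Kyoto cells (double thymidine block for G1/S, nocodazole release for mitosis), protein amounts in NP-40 versus SDS lysates quantified by mass spectrometry, three biological replicates.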
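Wherever solubility in G1/S (NP-40 vs SDS abundance) is given: HeLa Kyoto cells arrested at G1/S by double thymidine block, proteins quantified by TMT10plex mass spectrometry in mild NP-40 versus SDS extracts, three biological replicates.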

| Sequence | melting temperature (HeLa Kyoto [1]; cell cycle stage: G1/S) [°C] | melting temperature (HeLa Kyoto [1]; cell cycle stage: mitosis) [°C] | solubility in G1/S (log2) (HeLa Kyoto [2]) | solubility change mitosis (log2) (HeLa Kyoto [3]) |
| --- | --- | --- | --- | --- |
| MRPLLGLLLVFAGCTFALYLLSTRLPRGRRLGSTEEAGGRSLWFPSDLAELRELSEVLREYRKEHQAYVFLLFCGAYLYKQGFAIPGSSFLNVLAGALFGPWLGLLLCCVLTSVGATCCYLLSSIFGKQLVVSYFPDKVALLQRKVEENRNSLFFFLLFLRLFPMTPNWFLNLSAPILNIPIVQFFFSVLIGLIPYNFICVQTGSILSTLTSLDALFSWDTVFKLLAIAMVALIPGTLIKKFSQKHLQLNETSTANHIHSRKDT [TMEM41A] | 55.1 | 55.5 | 0.0255 | -0.205 |
| MRRAAGMEDFSAEEEESWYDQQDLEQDLHLAAELGKTLLERNKELEGSLQQMYSTNEEQVQEIEYLTKQLDTLRHVNEQHAKVYEQLDLTARDLELTNHRLVLESKAAQQKIHGLTETIERLQAQVEELQAQVEQLRGLEQLRVLREKRERRRTIHTFPCLKELCTSPRCKDAFRLHSSSLELGPRPLEQENERLQTLVGALRSQVSQERQRKERAEREYTAVLQEYSELERQLCEMEACRLRVQELEAELLELQQMKQAKTYLLGPDDHLAEALLAPLTQAPEADDPQPGRGDDLGAQDGVSSPAASPGHVVRKSCSDTALNAIVAKDPASRHAGNLTLHANSVRKRGMSILREVDEQYHALLEKYEELLSKCRQHGAGVRHAGVQTSRPISRDSSWRDLRGGEEGQGEVKAGEKSLSQHVEAVDKRLEQSQPEYKALFKEIFSRIQKTKADINATKVKTHSSK [CDR2L] | 52.5 | – | 0.549 | -0.204 |
| MSATRAKKVKMATKSCPECDQQVPVACKSCPCGYIFISRKLLNAKHSEKSPPSTENKHEAKRRRTERVRREKINSTVNKDLENRKRSRSNSHSDHIRRGRGRPKSASAKKHEEEREKQEKEIDIYANLSDEKAFVFSVALAEINRKIINQRLIL [C16ORF87] | – | 50.6 | 0.019 | 0.198 |
| MSCGNEFVETLKKIGYPKADNLNGEDFDWLFEGVEDESFLKWFCGNVNEQNVLSERELEAFSILQKSGKPILEGAALDEALKTCKTSDLKTPRLDDKELEKLEDEVQTLLKLKNLKIQRRNKCQLMASVTSHKSLRLNAKEEEATKKLKQSQGILNAMITKISNELQALTDEVTQLMMFFRHSNLGQGTNPLVFLSQFSLEKYLSQEEQSTAALTLYTKKQFFQGIHEVVESSNEDNFQLLDIQTPSICDNQEILEERRLEMARLQLAYICAQHQLIHLKASNSSMKSSIKWAEESLHSLTSKAVDKENLDAKISSLTSEIMKLEKEVTQIKDRSLPAVVRENAQLLNMPVVKGDFDLQIAKQDYYTARQELVLNQLIKQKASFELLQLSYEIELRKHRDIYRQLENLVQELSQSNMMLYKQLEMLTDPSVSQQINPRNTIDTKDYSTHRLYQVLEGENKKKELFLTHGNLEEVAEKLKQNISLVQDQLAVSAQEHSFFLSKRNKDVDMLCDTLYQGGNQLLLSDQELTEQFHKVESQLNKLNHLLTDILADVKTKRKTLANNKLHQMEREFYVYFLKDEDYLKDIVENLETQSKIKAVSLED [HAUS3] | 48.6 | 49.8 | 0.0967 | 0.224 |
| MSDCYTELEKAVIVLVENFYKYVSKYSLVKNKISKSSFREMLQKELNHMLSDTGNRKAADKLIQNLDANHDGRISFDEYWTLIGGITGPIAKLIHEQEQQSSS [S100A16] | 51.3 | – | -0.172 | 0.301 |
| MSDESASGSDPDLDPDVELEDAEEEEEEEEVAVEECDRDDEEDLLDDPSLEGMCGTEHAQLGEDGQQPPRCTSTTSSQSEPSEQLRRHQGKNLASEDPKKKRAQKPSHMRRNIRKLLREDQLEPVTKAAQQEELERRKRLEQQRKDYAAPIPTVPLEFLPEEIALRASDGPQLPPRVLAQEVICLDSSSGSEDEKSSRDEVIELSSGEEDTLHIVDSSESVSEDDEEEEKGGTHVNDVLNQRDALGRVLVNLNHPPEEENVFLAPQLARAVKPHQIGGIRFLYDNLVESLERFKTSSGFGCILAHSMGLGKTLQVISFIDVLFRHTPAKTVLAIVPVNTLQNWLAEFNMWLPPPEALPADNKPEEVQPRFFKVHILNDEHKTMASRAKVMADWVSEGGVLLMGYEMYRLLTLKKSFATGRPKKTKKRSHPVIIDLDEEDRQQEFRREFEKALCRPGPDVVICDEGHRIKNCQASTSQALKNIRSRRRVVLTGYPLQNNLIEYWCMVDFVRPDFLGTRQEFSNMFERPILNGQCIDSTPQDVRLMRYRSHVLHSLLEGFVQRRGHTVLKIHLPAKEENVILVRLSKIQRDLYTQFMDRFRDCGSSGWLGLNPLKAFCVCCKIWNHPDVLYEALQKESLANEQDLDVEELGSAGTSARCPPQGTKGKGEDSTLASSMGEATNSKFLQGVGFNPFQERGNNIVTYEWAKDLLTNYQTGVLENSPKMVLLFHLIEESVKLGDKILVFSQSLSTLALIEEFLGKREVPCPPGTEGQGAQKWVRNISYFRLDGSTPAFERERLINQFNDPSNLTTWLFLLSTRAGCLGVNLIGANRVVVFDASWNPCHDAQAVCRVYRYGQKKPCYIYRLVADYTLEKKIYDRQISKQGMSDRVVDDLNPMLNFTRKEVENLLHFVEKEPAPQVSLNVKGIKESVLQLACLKYPHLITKEPFEHESLLLNRKDHKLTKAEKKAAKKSYEEDKRTSVPYTRPSYAQYYPASDQSLTSIPAFSQRNWQPTLKGDEKPVASVRPVQSTPIPMMPRHVPLGGSVSSASSTNPSMNFPINYLQRAGVLVQKVVTTTDIVIPGLNSSTDVQARINAGESIHIIRGTKGTYIRTSDGRIFAVRATGKPKVPEDGRMAASGSQGPSCESTSNGRHSASSPKAPDPEGLARPVSPDSPEIISELQQYADVAAARESRQSSPSTNAALPGPPAQLMDSSAVPGTALGTEPRLGGHCLNSSLLVTGQPCGDRHPVLDLRGHKRKLATPPAAQESSRRRSRKGHLPAPVQPYEHGYPVSGGFAMPPVSLNHNLTTPFTSQAGENSLFMGSTPSYYQLSNLLADARLVFPVTTDPLVPAGPVSSSSTATSVTASNPSFMLNPSVPGILPSYSLPFSQPLLSEPRMFAPFPSPVLPSNLSRGMSIYPGYMSPHAGYPAGGLLRSQVPPFDSHEVAEVGFSSNDDEDKDDDVIEVTGK [RAD54L2] | – | 49.7 | -0.0448 | -0.143 |
| MSGAGEALAPGPVGPQRVAEAGGGQLGSTAQGKCDKDNTEKDITQATNSHFTHGEMQDQSIWGNPSDGELIRTQPQRLPQLQTSAQVPSGEEIGKIKNGHTGLSNGNGIHHGAKHGSADNRKLSAPVSQKMHRKIQSSLSVNSDISKKSKVNAVFSQKTGSSPEDCCVHCILACLFCEFLTLCNIVLGQASCGICTSEACCCCCGDEMGDDCNCPCDMDCGIMDACCESSDCLEICMECCGICFPS [MDFIC] | 57.2 | 55.7 | -0.698 | 0.671 |
